Measured values reported in US20030077318A1.

Tests used:
[1] = target: T1, soluble H-2K^b (K^bsol), heterodimer of truncated K^b heavy chain and murine β-2 microglobulin, purified empty from Drosophila cells (murine), P01901; assay: competitive RIA against [^125I]VSV-8 on K^bsol, P30 gel filtration, 23° C.
T1 chain 1: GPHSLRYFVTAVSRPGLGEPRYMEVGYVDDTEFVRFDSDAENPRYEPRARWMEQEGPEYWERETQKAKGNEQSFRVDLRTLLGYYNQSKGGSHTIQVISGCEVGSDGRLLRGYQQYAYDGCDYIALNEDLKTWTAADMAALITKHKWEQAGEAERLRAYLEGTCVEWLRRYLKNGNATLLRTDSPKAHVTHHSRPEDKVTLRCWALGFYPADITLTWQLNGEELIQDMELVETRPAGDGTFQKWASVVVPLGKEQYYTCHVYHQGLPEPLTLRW
T1 chain 2: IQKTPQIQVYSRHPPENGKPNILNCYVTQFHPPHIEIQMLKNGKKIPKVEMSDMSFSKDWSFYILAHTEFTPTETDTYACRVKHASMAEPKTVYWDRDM

[2] = target: T1, soluble H-2K^b (K^bsol), heterodimer of …; assay: competitive RIA against [^125I]VSV-8 on K^bsol

EQLESIINFEKLTEWTSSNVMEER (modifications not checked) [OVA-24]
Kd [1]: 71 µM
fold lower affinity than OVA-8 [2]: > 10000 fold
